Here are results for one molecule from patent publication US11110182B2, “Multifunctional RNA nanoparticles and methods for treating cancer and therapeutic resistant cancer” (University of Cincinnati, priority 2016, dated 2021).

The data set relates to ERα target genes TFF-1, c-Myc, cyclin D1 and MMP-9. The experiment in a line: Gene expression in xenograft tumor tissues by real-time PCR. In kind it is in vivo, athymic nude mice. The source says: FIG. 6A) Whole lung tissues were fixed, embedded, and sectioned for H&E staining, and FIG. 6B) metastasis foci in the whole lung tissues were then counted. Arrow indicates the metastasis foci. Scale bar: 100 μm. FIG. 6C) After digesting tumor tissues with trypsin and 0.1% collagenase, tumor cells were stained for CD44 and CD24, and FIG. 6D) analyzed for CD44^+CD24^−/low stem cell population using flow cytometry. FIG. 6E) Total RNA in the tumor tissues was extracted using TRIZOL reagent, and the expression of TFF-1, FIG. 6F) c-Myc, FIG. 6G) cyclin D1, and FIG. 6H) MMP-9 were determined by real-time PCR.
Cell culture. Human breast cancer luciferase-overexpressing BT474 and MDA-MB-231 cells were maintained in DMEM medium (Hyclone, Thermo Scientific) supplemented with 10% fetal bovine serum (FBS, Sigma) and 1% penicillin/streptomycin (Corning) at 37° C. in a humidified atmosphere with 5% CO2.^53 • Generation of pRNA nanoparticles. The two strands of pRNA were synthesized with the DNA templates, which were amplified with overlapping primers (Sigma) by PCR methods, using a T7 promoter-controlled in vitro RNA transcription system as previously described^33 (Table 1). All the CTP and UTP used for synthesis of the pRNA nanoparticles were 2′-fluoro modified, except the control unmodified pRNA nanoparticles used in the stability assays. Following an overnight transcription at 37° C., RNA strands were purified using RNA clean and concentrator kits (ZYMO research) and examined by 8 M urea denatured 8% PAGE gel. pRNA nanoparticles were assembled by mixing the equal molar amounts of p1 and p2 strands and gradually annealing from 90° C. to 20° C. in 1×RNA annealing buffer containing 50 mM Tris-HCl (pH 7.5), 50 mM NaCl and 1 mM EDTA on a PCR machine. The generated pRNA nanoparticles were examined by 8% native PAGE gels as previously described.^33 To generate AF647-conjugated pRNA nanoparticles, a 5′-termial AF647-conjugated RNA strand was synthesized (TriLink) for annealing. • Characterization of pRNA nanoparticles. The hydrodynamic diameter and Tm value of pRNA nanoparticles were determined using dynamic light scattering and TGGE assay, respectively, as previously described.^54 The AFM imaging of the pRNA nanoparticles was performed at the University of Nebraska Medical Center imaging facility as previously reported.^55 Briefly, the pRNA nanoparticles (5 μL) were deposited on APS modified mica ^56 for a total of 2 min of incubation time. Excess samples were washed with DI water and dried under a flow of Argon gas. AFM images in air were acquired using MultiMode AFM NanoScope IV system (Bruker Instruments) operating in tapping mode with 1.5 Hz scanning rate. TESPA probes from Bruker were used for tapping mode imaging. […] For stability analyses, the pRNA nanoparticles were treated with RNase A, 8 M urea, or 10% FBS supplemented DMEM medium at 37° C., respectively. The integrity of the pRNA nanoparticles was examined through native PAGE gel electrophoresis. • pRNA nanoparticle cellular uptake assay. BT474 and MDA-MB-231 cells were seeded into 4-well Lab-Tek chamber slides (Nalge Nunc international, Thermo scientific) and incubated with 10 μg/mL AF647-conjugated pRNAs at 4° C. for 30 min. After washing with PBS for three times, cells were incubated at 37° C. for another hour. Cells were then fixed with 4% formaldehyde, permeated with 0.25% Trinton X-100, and stained with FITC-conjugated β-actin antibody (Sigma) and DAPI (Sigma). pRNA nanoparticle uptake was examined using a laser scanning confocal microscope (Zeiss). For flow cytometry analyses, BT474 cells were incubated with AF647-labeled pRNA nanoparticles at 37° C. for 3 h. After washing three times with PBS, the cellular uptake of pRNAs was determined using a BD LSRFortessa™ flow cytometer. • Real-time PCR. […]
A general note: Real-time PCR tracks product formation cycle by cycle.

B1: pRNA-HER2apt-siMED1: 3-WJ pRNA nanoparticle bearing a HER2-targeting RNA aptamer and two different MED1 siRNAs; strands p1 SEQ ID NO: 3, p2 SEQ ID NO: 4 (nucleic acid)
chain 1: GGACAGUGAAAGUGAGUCAAAGGAUCAAUCAUGGCCAAAGAUGUUACUUUGAGAGCCUU
chain 2: GGCUCUCAAAGUAACAUCUAAGGCCAUGUGUAUGUGGGGGGAGGACGAUGCGGUCUGCUGUGCUUGAUAUGCCCCAGACGACUCGCCCCCCACAUACUUUGUUGAUCCAAUGACUCACUUUCACUGUCCUU
modifications: 2'-F modification; third strand may lack entry; pRNA-HER2apt-siMED1, p1; pRNA-HER2apt-siMED1, p2
With B1, under “combined with tamoxifen”, the “MMP-9 expression in tumor tissues” value was “further inhibited”, the “TFF-1 expression in tumor tissues” value is “further inhibited”, the “c-Myc expression in tumor tissues” value was “further inhibited” and the “cyclin D1 expression in tumor tissues” value is reported as “further inhibited”. Besides, under “pRNA treatment”, the “MMP-9 expression in tumor tissues” value is “significantly down-regulated”, the “TFF-1 expression in tumor tissues” value is on record as “significantly down-regulated”, the “c-Myc expression in tumor tissues” value is listed as “significantly down-regulated” and the “cyclin D1 expression in tumor tissues” value is recorded as “significantly down-regulated”.
